Changes are numbered by the printed parent chain. In names and notes the source's numbering stands.

In one series the test system is soybean shoots. Nature of the series: soybean transformation, greening or bleaching of shoots on isoxaflutole or tembotrione selection. The conditions noted are these: selection amount of herbicide. It is filed as in vivo. The text has this:
Soybean transformation is achieved using methods well known in the art, such as the one described using the Agrobacterium tumefaciens mediated transformation soybean half-seed explants using essentially the method described by Paz et al. (2006), Plant cell Rep. 25:206. Transformants were identified using tembotrione or isoxaflutole as selection marker. The appearance of green shoots was observed, and documented as an indicator of tolerance to the herbicide isoxaflutole or tembotrione.

In the next series the test system is maize T0 events. Nature of the series: greenhouse spray test of maize T0 events for tolerance to Cmpd. 4. It is filed as in vivo. The settings on record: 25 g AI/ha.
For series [1], the system named is Pseudomonas fluorescens HPPD protein. Nature of the series: brown color assay: HPPD extracts spotted on solid media containing tyrosine and an HPPD inhibitor. It is filed as biochemical. The conditions noted are these: TBT, DKN and mesotrione 500-2000 uM, compared with PfHPPD and PfEvo33. As to the method: A specific, although non-limiting, type of assay that can be used to evaluate the HPPD sequences of the invention is a colorimetric assay. In this assay, a YT-broth-type culture medium with 1% agarose, 5 mM L-Tyrosine and 42 mM Succinate, which contains the selection agent for the vector pSE420 (Invitrogen, Karlsruhe, Germany) or a modified version of pSE420 (pSE420(RI)NX) is poured into deep well plates. E. coli culture in the exponential growth phase which contains the vector pSE420-HPPDx (HPPDx means any gene coding for a putative HPPD enzyme/protein) is applied to each well.
The HPPD PfEvo33 mutant (described in International Patent Application No PCT/US2013/59598 (filed on Sep. 13, 2013) and set forth herein as SEQ ID NO:5) was mutagenized at positions 334 and 336. Saturated mutagenesis of these positions was carried out using the QUIKCHANGE® lightning kit. Mutants were pooled and transformed into DH5alpha E. coli cells. Six hundred individual clones were screened for tolerance to the HPPD inhibitor tembotrione (TBT). The clones were grown in LB media plus kanamycin at 37 degrees C. in a shaker until an OD600 nm of 0.3 was reached. Cultures were then switched to 30 degrees C. and incubated for an additional 17 hours. Cultures were spun down and cell pellets resuspended in 10 mM Hepes/KOH pH 7.6, 4 mM MgCl2, 1 mM DTT. […]
The mutants were analyzed using a brown color assay. […]

For series [2] the test system is unchanged. Nature of the series: OD assay: HPPD activity and pI50 from HPP remaining after derivatisation with DNP. It counts as biochemical. The settings on record: for Activity DeltaE/24 min μg Protein: HPPD enzyme activity of the clone; for tolerance (pI50) Cmpd. 2: inhibitor Cmpd. 2; for tolerance (pI50) DKN: inhibitor diketonitrile (DKN), negative log of molar concentration; for tolerance (pI50) MST: inhibitor mesotrione (MST); for tolerance (pI50) TBT: inhibitor tembotrione (TBT). The method, boiled down: (§1)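 Purified Pseudomonas fluorescens HPPD, room temperature. OD assay: 50 mM Tris-HCl pH 7.8, 0.5 mM HPP, 10 mM ascorbate, catalase, 24 min, remaining HPP derivatised with DNP, read at 405 nm, inhibitor 5.0×10^−6 to 5.0×10^−4 M. HGD assay: 200 mM Tris-HCl pH 7.6, 600 μM HPP, 20 μM FeSO4, coupled HGA dioxygenase, initial rates at 318 nm, inhibitor ≤100 μM, time-course gives inhibition type; pI50 from 4-parameter fits.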

For series [3] the test system is unchanged. Nature of the series: HGD assay: HPPD activity coupled to HGA dioxygenase, pI50 and type of inhibition (time-course). The settings on record: for tolerance (pI50) DKN: inhibitor diketonitrile (DKN); for tolerance (pI50) MST: inhibitor mesotrione (MST); for tolerance (pI50) TBT: inhibitor tembotrione (TBT). It is filed as biochemical. The gist of the method: as §1

The next series has as its system T0 soybean plants. Nature of the series: greenhouse spray test of T0 soybean plants for tolerance to mesotrione. It is filed as in vivo. The settings on record: mesotrione 3X field rate, 316 grams AI per hectare, seven days after treatment. As to the method:
T0 soybean plants expressing an HPPD inhibitor tolerant enzyme of the present invention, along with a gene conferring tolerance to glyphosate and a gene conferring tolerance to glufosinate or having a “plant expression cassette”, which includes only an HPPD inhibitor tolerant enzyme of the present invention, were tested for tolerance to mesotrione. Prior greenhouse trials with the transgenic plants, soy transformants were routinely analyzed for the expression and presence of the transgenes using the ELISA protein detection method (see detailed description under item D and H). Only plants recovering in the selection media and having a detectable HPPD transgene protein expression were used for the herbicide tolerance analysis. A DeVries Tracker Sprayer was calibrated prior to each spraying. The chemical formulation used for mesotrione (MST) testing was Callisto® 4 SC formulation supplemented with ammonium sulfate and methylated rape seed oil (Actirob). Spray tests were conducted using 3× the field rate (equivalent to 9 fluid ounce per acre of the same herbicide formulation that containing 40% the active ingredient (AI), mesotrione), which equals 316 grams AI per hectare. Tolerance was evaluated one week after spraying. […] A tolerance rating of “0” was assigned to plants that their shoot apexes, newly emerged trifoliates and some axillary buds were completely bleached. A rating of “1” was assigned to plants having slight tolerance, i.e., the newest plant shoot tissues had some green leaves and are not bleached completely. A rating of “2” was assigned to plants showing moderate tolerance, i.e., more than 50% of the leaf area of the top three trifoliates showing no chlorosis or bleaching damage. A rating of “3” was assigned to plants showing nearly perfect tolerance, i.e., less than 10% of the leaf area showing chlorosis or very slight bleaching.

Where [4] appears, read: HT-single plant expression cassette.
Where [5] appears, read: HT-triple plant expression cassette.

Regarding `CS(=O)(=O)c1cc(C(F)(F)F)ccc1C(=O)c1cnoc1C1CC1` [isoxaflutole, (5-cyclopropyl-4-isoxazolyl)[2-(methylsulfonyl)-4-(trifluoromethyl)phenyl]methanone], the “appearance of wild-type soybean shoots treated with the herbicide” value in the series with soybean shoots is recorded as “entirely bleached”.
In the case of `CSc1c(C(F)(F)F)ccc(C(=O)Nc2nnnn2C)c1Cl` [Cmpd. 4, 2-chloro-3-(methylsulfanyl)-N-(1-methyl-1H-tetrazol-5-yl)-4-(trifluoromethyl)benzamide], in the series with maize T0 events, the “leaf damage of control maize T0 events expressing EPSPS only, no HPPD variant” value stood at 100% and the “leaf damage of non-transformed maize plants” value was 100%.
`CS(=O)(=O)c1ccc(C(=O)C2C(=O)CCCC2=O)c(Cl)c1COCC(F)(F)F` [tembotrione, 2-[2-chloro-4-(methylsulfonyl)-3-[(2,2,2,-trifluoroethoxy)methyl]benzoyl]-1,3-cyclo-hexanedione]: the “appearance of wild-type soybean shoots treated with the herbicide” value with soybean shoots was “entirely bleached”.

B1: PfEvo43: PfHPPD variant E335P, G336F (protein)
chain: MADLYENPMGLMGFEFIEFASPTPGTLEPIFEIMGFTKVATHRSKNVHLYRQGEINLILNNEPNSIASYFAAEHGPSVCGMAFRVKDSQKAYNRALELGAQPIHIDTGPMELNLPAIKGIGGAPLYLIDRFGEGSSIYDIDFVYLEGVERNPVGAGLKVIDHLTHNVYRGRMVYWANFYEKLFNFREARYFDIKGEYTGLTSKAMSAPDGMIRIPLNEESSKGAGQIEEFLMQFNGEGIQHVAFLTDDLVKTWDALKKIGMRFMTAPPDTYYEMLEGRLPDHGEPVDQLQARGILLDGSSVEGDKRLLLQIFSETLMGPVFFEFIQRKGDDGFGPFNFKALFESIERDQVRRGVLTAD
modifications: HPPD variant - PfEvo43
notes: PfHPPD variant E335P, G336F
Regarding B1, in series [1], the “brown color formation in presence of HPPD inhibitors” value is on record as “darkest color”. Besides, in series [2], the “Activity DeltaE/24 min μg Protein” value is 0.39 DeltaE/24 min μg Protein, the “tolerance (pI50) Cmpd. 2” value is more than 5.6, the “tolerance (pI50) DKN” value amounted to 4.1 and the “tolerance (pI50) MST” value was found to be 4.6. For the same molecule, in series [3], the “mechanism of inhibition by diketonitrile (DKN), time-course of inhibition” value (“mechanism of inhibition by diketonitrile” for short) was “fully reversible inhibition”; the “mechanism of inhibition by mesotrione (MST), time-course of inhibition” value (shortened to “mechanism of inhibition by mesotrione”) was “fully reversible inhibition”; the “mechanism of inhibition by tembotrione (TBT), time-course of inhibition” value (“mechanism of inhibition by tembotrione” for short) is on record as “fully reversible inhibition”. In series [3] (HGD assay), the “tolerance (pI50) DKN” value worked out at 4.0, the “tolerance (pI50) MST” value turned out to be 5.1 and the “tolerance (pI50) TBT” value worked out at 6.0. Also, in the series with T0 soybean plants (setting [4]), the “Number of T0 soybean plants with herbicide tolerance rating 0 (completely bleached)” value (“Number … (completely bleached)” for short) worked out at 1, the “Number of T0 soybean plants with herbicide tolerance rating 1 (slight tolerance)” value (“Number of T0 soybean plants … (slight tolerance)” for short) worked out at 13, the “Number of T0 soybean plants with herbicide tolerance rating 2 (moderate tolerance)” value (shortened to “Number … (moderate tolerance)”) was found to be 25 and the “Number of T0 soybean plants with herbicide tolerance rating 3 (nearly perfect tolerance)” value (“Number … (nearly perfect tolerance)” for short) turned out to be 34. Further, in the series on T0 soybean plants (setting [5]), the “Number … (completely bleached)” value turned out to be 6, the “Number of T0 soybean plants … (slight tolerance)” value is recorded as 18, the “Number … (moderate tolerance)” value was found to be 26 and the “Number … (nearly perfect tolerance)” value stood at 20.

B2: FLP130: PfHPPD variant E335P, G336F, A340E (protein)
chain: B1 chain with A340E
modifications: HPPD variant - FLP130
notes: PfHPPD variant E335P, G336F, A340E
Take B2: in series [2], the “Activity DeltaE/24 min μg Protein” value was 0.39 DeltaE/24 min μg Protein, the “tolerance (pI50) Cmpd. 2” value is reported as 5.5, the “tolerance (pI50) DKN” value is on record as 3.2 and the “tolerance (pI50) MST” value is listed as 3.7. Further, in series [2], the “tolerance (pI50) TBT” value is 4.8. In series [3], the “mechanism of inhibition by diketonitrile” value was “fully reversible inhibitors”; the “mechanism of inhibition by mesotrione” value is “fully reversible inhibitors”; the “mechanism of inhibition by tembotrione” value is “fully reversible inhibitors”. The “tolerance (pI50) Cmpd. 1” value in series [3] (inhibitor Cmpd. 1, HGD assay) turned out to be 6.2. In addition, the “tolerance (pI50) Cmpd. 2” value in series [3] (inhibitor Cmpd. 2, HGD assay) is recorded as 6.2. The “tolerance (pI50) Cmpd. 3” value in series [3] (inhibitor Cmpd. 3, HGD assay) is given as 6.4. In addition, the “tolerance (pI50) Cmpd. 4” value in series [3] (inhibitor Cmpd. 4, HGD assay) is on record as 6.6. In addition, the “tolerance (pI50) Cmpd. 5” value in series [3] (inhibitor Cmpd. 5, HGD assay) was 6.0. Also, in series [3] (HGD assay), the “tolerance (pI50) DKN” value is 4.3, the “tolerance (pI50) MST” value was found to be 5.3 and the “tolerance (pI50) TBT” value stood at 6.2. Also, in the series on T0 soybean plants (setting [5]), the “Number … (completely bleached)” value turned out to be 3, the “Number of T0 soybean plants … (slight tolerance)” value is recorded as 18, the “Number … (moderate tolerance)” value was 39 and the “Number … (nearly perfect tolerance)” value is on record as 11.

B3: PfEvo44: PfHPPD variant E335P, G336Y (protein)
chain: B1 chain with F336Y
modifications: HPPD variant - PfEvo44
notes: PfHPPD variant E335P, G336Y
As to B3, in series [1], the “brown color formation in presence of HPPD inhibitors” value is on record as “darkest color”. Besides, in series [2], the “Activity DeltaE/24 min μg Protein” value was determined as 0.41 DeltaE/24 min μg Protein, the “tolerance (pI50) DKN” value amounted to 4.0, the “tolerance (pI50) MST” value was 4.6 and the “tolerance (pI50) TBT” value is more than 5.6. In addition, in series [3], the “mechanism of inhibition by diketonitrile” value is recorded as “fully reversible inhibition”; the “mechanism of inhibition by mesotrione” value is on record as “fully reversible inhibition”; the “mechanism of inhibition by tembotrione” value was “fully reversible inhibition”. In addition, in series [3] (HGD assay), the “tolerance (pI50) DKN” value was 4.1, the “tolerance (pI50) MST” value is 5.2 and the “tolerance (pI50) TBT” value is 5.9. Moreover, in the series with T0 soybean plants (setting [4]), the “Number … (completely bleached)” value is 7, the “Number of T0 soybean plants … (slight tolerance)” value is listed as 14, the “Number … (moderate tolerance)” value came out at 43 and the “Number … (nearly perfect tolerance)” value is given as 21. Besides, in the series with T0 soybean plants (setting [5]), the “Number … (completely bleached)” value turned out to be 4, the “Number of T0 soybean plants … (slight tolerance)” value was 22, the “Number … (moderate tolerance)” value is listed as 19 and the “Number … (nearly perfect tolerance)” value is on record as 26.

These data come from patent US10400249B2, “HPPD variants and methods of use” (priority 2014, dated 2019).
